According to patent publication US20200024331A1 (published 2020):

B1: CC3 (VHH)
VHH: EVQLQASGGGSVQAGGSLRLSCVTSQNLFEYYTMGWYRQVPGSQRERVALINNGGSTVAGSVEGRFTISRDHAKNSVYLQMNYLKPEDSAVYYCRAFGPADYWGQGTQVTVSS
B2: CA6 (VHH)
VHH: EVQLQASGGGLVRPGGSLRLSCAASGSFFTIDTMAWYRQAPGRRRELVARQSSGRSPDYDDSVVGRFTISRDIAKSSVYLQMDSLQPEDTALYYCYQSIRPWPGSSYEAHWGQGIQVIVSS

Tests used:
[1] = molecular target: Chikungunya virus E1 protein (Chikungunya virus, UniProt Q8JUX5 810-1224); assay: SPR
[2] = molecular target: Chikungunya virus-like particles (CHIKV VLP) (Chikungunya virus, UniProt Q8JUX5 810-1248; Q8JUX5 326-748); assay: SPR
Chikungunya virus-like particles (CHIKV VLP), sequence (Q8JUX5 810-1248, chain 1 of 2): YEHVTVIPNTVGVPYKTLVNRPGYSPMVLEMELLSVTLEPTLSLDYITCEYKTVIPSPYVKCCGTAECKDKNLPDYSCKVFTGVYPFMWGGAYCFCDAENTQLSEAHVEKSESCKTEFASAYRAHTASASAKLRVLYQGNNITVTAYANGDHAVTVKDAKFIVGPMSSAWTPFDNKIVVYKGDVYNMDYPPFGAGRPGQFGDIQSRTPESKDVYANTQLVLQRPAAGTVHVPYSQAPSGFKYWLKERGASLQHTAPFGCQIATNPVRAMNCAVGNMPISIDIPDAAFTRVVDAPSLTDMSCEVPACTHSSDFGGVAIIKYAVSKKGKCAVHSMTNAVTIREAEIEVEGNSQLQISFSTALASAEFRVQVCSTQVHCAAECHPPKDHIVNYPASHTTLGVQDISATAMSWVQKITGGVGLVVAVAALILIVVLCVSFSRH
Chikungunya virus-like particles (CHIKV VLP), sequence (Q8JUX5 326-748, chain 2 of 2): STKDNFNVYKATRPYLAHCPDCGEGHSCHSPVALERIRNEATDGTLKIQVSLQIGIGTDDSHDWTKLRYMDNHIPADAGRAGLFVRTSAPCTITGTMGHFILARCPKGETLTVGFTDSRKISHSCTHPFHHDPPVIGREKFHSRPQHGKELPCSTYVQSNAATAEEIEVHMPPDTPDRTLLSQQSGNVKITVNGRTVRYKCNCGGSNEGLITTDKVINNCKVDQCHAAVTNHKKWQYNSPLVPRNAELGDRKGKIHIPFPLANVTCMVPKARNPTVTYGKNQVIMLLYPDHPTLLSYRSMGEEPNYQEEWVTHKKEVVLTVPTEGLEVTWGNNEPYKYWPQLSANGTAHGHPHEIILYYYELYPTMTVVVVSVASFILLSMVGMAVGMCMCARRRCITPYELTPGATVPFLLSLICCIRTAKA

Chikungunya virus E1 protein, sequence (Q8JUX5 810-1224): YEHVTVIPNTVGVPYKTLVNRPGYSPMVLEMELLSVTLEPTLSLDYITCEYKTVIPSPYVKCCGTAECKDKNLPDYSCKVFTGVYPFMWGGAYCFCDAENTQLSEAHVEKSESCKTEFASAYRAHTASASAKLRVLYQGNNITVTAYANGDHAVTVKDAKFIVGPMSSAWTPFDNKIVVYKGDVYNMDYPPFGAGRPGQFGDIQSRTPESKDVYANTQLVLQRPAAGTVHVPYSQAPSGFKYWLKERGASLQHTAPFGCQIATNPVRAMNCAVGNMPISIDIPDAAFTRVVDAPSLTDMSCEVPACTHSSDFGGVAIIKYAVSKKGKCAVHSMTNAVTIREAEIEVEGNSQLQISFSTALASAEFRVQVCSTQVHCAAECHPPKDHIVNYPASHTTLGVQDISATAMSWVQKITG

Row | Binder | Kd [1] [nM] | Kd [2] [nM]
1 | B1 | 3.04 | 1.2
2 | B2 | 0.132 | 
